Measured values published in US7700571 (Genentech, dated 2010).

Legend:
[1] = biological target: Flt-1 on primary mouse liver sinusoidal endothelial cells (LSEC) (mouse) (UniProt P35969); test: cell-based or functional assay
[2] = biological target: T1, KDR (UniProt P35968 20-764, limits assumed); test: soluble radio-immuno receptor-binding assay (RIA); target KDR
T1 construct: also called VEGFR-2; KDR receptor

[3] = biological target: T2, Flt-1 (UniProt P17948 27-758, limits assumed); test: soluble radio-immuno receptor-binding assay (RIA); target Flt-1
T2 construct: also called VEGFR-1; Flt-1 receptor

[4] = biological target: T3, Flt-1 on primary mouse liver sinusoidal endothelial cells (LSEC) (mouse, UniProt P35969 23-1333); test: cell-based or functional assay
T3 sequence (looked up): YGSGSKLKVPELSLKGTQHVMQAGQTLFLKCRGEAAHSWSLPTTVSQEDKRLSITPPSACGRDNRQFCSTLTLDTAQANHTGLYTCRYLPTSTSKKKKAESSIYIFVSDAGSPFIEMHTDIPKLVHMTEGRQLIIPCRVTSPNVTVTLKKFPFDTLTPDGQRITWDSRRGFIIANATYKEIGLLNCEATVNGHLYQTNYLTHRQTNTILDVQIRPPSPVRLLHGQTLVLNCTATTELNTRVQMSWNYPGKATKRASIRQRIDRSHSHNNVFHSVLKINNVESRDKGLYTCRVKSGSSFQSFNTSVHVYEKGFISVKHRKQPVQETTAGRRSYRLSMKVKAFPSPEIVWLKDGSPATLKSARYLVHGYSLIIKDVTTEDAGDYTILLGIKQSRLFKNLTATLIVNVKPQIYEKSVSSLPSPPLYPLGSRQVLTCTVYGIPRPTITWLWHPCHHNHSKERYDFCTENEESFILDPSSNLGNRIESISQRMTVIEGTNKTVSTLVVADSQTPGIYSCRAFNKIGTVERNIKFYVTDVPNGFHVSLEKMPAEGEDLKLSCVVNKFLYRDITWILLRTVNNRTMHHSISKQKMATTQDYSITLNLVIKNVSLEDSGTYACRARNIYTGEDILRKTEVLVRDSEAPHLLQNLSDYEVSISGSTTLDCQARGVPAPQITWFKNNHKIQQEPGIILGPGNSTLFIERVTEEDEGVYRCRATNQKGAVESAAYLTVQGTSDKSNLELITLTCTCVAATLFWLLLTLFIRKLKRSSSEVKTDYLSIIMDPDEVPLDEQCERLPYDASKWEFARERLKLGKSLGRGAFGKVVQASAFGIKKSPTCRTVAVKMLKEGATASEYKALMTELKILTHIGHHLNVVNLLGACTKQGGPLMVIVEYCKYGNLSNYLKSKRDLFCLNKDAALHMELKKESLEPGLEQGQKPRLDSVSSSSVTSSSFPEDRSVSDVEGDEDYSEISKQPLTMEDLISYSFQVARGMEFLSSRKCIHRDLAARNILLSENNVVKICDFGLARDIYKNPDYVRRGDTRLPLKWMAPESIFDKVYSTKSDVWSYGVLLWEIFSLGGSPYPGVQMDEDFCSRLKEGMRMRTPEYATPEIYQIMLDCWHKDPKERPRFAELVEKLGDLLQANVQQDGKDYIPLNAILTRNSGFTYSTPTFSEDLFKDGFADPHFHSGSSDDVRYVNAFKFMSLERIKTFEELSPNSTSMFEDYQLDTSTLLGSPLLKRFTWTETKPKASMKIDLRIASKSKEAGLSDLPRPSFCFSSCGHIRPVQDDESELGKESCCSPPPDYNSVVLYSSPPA

[5] = biological target: T1, KDR; test: soluble radio-immuno receptor-binding assay (RIA)

T1 sequence (P35968 20-764 limits assumed): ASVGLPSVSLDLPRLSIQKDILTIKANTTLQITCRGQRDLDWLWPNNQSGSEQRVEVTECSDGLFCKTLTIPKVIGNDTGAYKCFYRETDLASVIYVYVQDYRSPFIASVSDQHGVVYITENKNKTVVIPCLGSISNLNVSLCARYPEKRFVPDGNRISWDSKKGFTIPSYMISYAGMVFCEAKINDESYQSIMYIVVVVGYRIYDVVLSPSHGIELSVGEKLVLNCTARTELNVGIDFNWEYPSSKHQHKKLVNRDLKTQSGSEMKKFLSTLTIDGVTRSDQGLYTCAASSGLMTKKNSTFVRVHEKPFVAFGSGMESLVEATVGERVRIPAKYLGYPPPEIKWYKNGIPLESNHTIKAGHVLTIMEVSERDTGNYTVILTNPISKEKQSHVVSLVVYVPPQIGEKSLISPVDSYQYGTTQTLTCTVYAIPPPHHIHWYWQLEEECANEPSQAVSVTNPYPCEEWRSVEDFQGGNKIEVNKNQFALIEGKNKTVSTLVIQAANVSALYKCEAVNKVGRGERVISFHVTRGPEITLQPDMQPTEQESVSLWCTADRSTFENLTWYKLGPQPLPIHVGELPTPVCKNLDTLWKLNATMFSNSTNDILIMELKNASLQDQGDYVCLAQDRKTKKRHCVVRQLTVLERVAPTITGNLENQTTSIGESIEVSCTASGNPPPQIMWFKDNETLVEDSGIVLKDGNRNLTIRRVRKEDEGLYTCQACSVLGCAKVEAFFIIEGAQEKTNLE
T2 sequence (P17948 27-758 limits assumed): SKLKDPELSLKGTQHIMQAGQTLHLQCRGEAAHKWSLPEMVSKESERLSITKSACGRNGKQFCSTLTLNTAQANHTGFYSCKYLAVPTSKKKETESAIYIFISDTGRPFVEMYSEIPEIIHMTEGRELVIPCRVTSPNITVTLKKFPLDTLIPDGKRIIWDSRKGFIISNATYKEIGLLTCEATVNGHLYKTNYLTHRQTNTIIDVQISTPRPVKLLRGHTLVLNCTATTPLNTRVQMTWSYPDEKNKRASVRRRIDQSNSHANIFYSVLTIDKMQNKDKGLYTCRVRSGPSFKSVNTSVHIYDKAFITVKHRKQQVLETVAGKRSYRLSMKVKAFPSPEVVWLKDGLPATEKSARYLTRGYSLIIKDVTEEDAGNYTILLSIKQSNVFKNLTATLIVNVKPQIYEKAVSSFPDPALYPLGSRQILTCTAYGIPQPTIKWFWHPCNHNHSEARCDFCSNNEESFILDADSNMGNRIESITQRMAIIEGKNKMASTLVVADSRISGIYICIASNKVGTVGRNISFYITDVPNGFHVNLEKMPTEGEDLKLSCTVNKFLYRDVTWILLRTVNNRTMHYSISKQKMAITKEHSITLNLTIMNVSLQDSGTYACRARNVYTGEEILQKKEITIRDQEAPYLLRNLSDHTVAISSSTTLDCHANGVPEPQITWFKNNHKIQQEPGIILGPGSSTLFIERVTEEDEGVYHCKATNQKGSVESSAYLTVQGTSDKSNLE

recombinant human VEGF (from UniProt P15692 181-395) (ligand)
induction of HGF mRNA in LSEC (Taqman RT-PCR, 10 ng/ml, 24 h) [1]: 5.5 fold | induction of IL-6 mRNA in LSEC (Taqman RT-PCR, 10 ng/ml, 24 h) [1]: 3.3 fold

B1: native VEGF(8-109) (ligand)
chain: GQNHHEVVKFMDVYQRSYCHPIETLVDIFQEYPDEIEYIFKPSCVPLMRCGGCCNDEGLECVPTEESNITMQIMRIKPHQGQHIGEMSFLQHNKCECRPKKD
notes: If that entry includes the signal peptide, 8-109 must be shifted; also called the native protein
Kd [2]: 500 pM | Kd [3]: 400 pM

B2: Flt-sel variant I43A/I46A/Q79A/I83A (ligand)
chain: APMAEGGGQNHHEVVKFMDVYQRSYCHPIETLVDIFQEYPDEAEYAFKPSCVPLMRCGGCCNDEGLECVPTEESNITMAIMRAKPHQGQHIGEMSFLQHNKCECRPKKDRARQENPCGPCSERRKHLFVQDPQTCKCSCKNTDSRCKARQLELNERTCRCDKPRR
notes: VEGF variant with four alanine substitutions, numbered on native VEGF; also called Fit-sel; FIt-sel
induction of HGF mRNA in LSEC (Taqman RT-PCR, 10 ng/ml, 24 h) [4]: 5.5 fold | induction of IL-6 mRNA in LSEC (Taqman RT-PCR, 10 ng/ml, 24 h) [4]: 3.3 fold | fold reduction of KDR-binding affinity against native VEGF(8-109) [5]: ≥ 470 fold
